Sequences and labels used below:
B1: HDV Ribozyme (parent)
chain: GGCCGGCAUGGUCCCAGCCUCCUCGCUGGCGCCGGCUGGGCAACAUUCCGAGGGGACCGUCCCCUCGGUAAUGGCGAAUGGGACCCA

Variants of B1 are the subject of this data set. Description: self-cleavage, relative activity (ratio to wild type); higher = more cleavage; co-transcriptional.
With GGUCGGCAUGGUCCCAGCCUCCUCGCUGGCGCCGGCUGGGCAACAUGCCGAGGGGACCGUCCCCUCGGUAAUGGCGAAUGGGACCCA [C3U U47G], the self-cleavage came out at 0.594. In the case of GGUCGGCAUGGUCCCAGCCUCCUCGCUGGCGCCGGCUGGGCAACAUUCCGAGGGGACCGUCCCCUCGGUAAUGGCGAAUGGGAUCCA [C3U C84U], the self-cleavage was 0.808. GGUCGGCAUGGUCCCAGCCUCCUCGCUGGCGCCGGCUGGGCAACAUUCCGAGGGGACCGGCCCCUCGGUAAUGGCGAAUGGGACCCA [C3U U60G]: the self-cleavage was 0.591. Next, GGUCGGCAUGGUCCCAGCCUCCUCGCUGGCGCCGGCUGGGCAACAUUCCGAGGGGACCGACCCCUCGGUAAUGGCGAAUGGGACCCA [C3U U60A]: 0.769; GGUCGGCAUGGUCCCAGCCUCCUCGCUGGCCCCGGCUGGGCAACAUUCCGAGGGGACCGUCCCCUCGGUAAUGGCGAAUGGGACCCA [C3U G31C]: 0.168; GGUCGGCAUGGUCCCAGCCUCCUCGCUGGCGCCGGCUGGGCAACAUUCCGAGGGGACCGUCCCCUCGGUAAUGGCAAAUGGGACCCA [C3U G76A]: 0.908.

Consider GGUCGGCAAGGUCCCAGCCUCCUCGCUGGCGCCGGCUGGGCAACAUUCCGAGGGGACCGUCCCCUCGGUAAUGGCGAAUGGGACCCA [C3U U9A], for which the self-cleavage came out at 0.904. As to GGUCGGCAUGGUCCCAGCCUCCUCGCUGGCGCCGGCAGGGCAACAUUCCGAGGGGACCGUCCCCUCGGUAAUGGCGAAUGGGACCCA [C3U U37A], the self-cleavage turned out to be 0.128. Next, GGUCGGCAUGGUCCCAGCCUCCUCGUUGGCGCCGGCUGGGCAACAUUCCGAGGGGACCGUCCCCUCGGUAAUGGCGAAUGGGACCCA [C3U C26U]: 0.65; GGUCGGCAUGGUCCCAGCCUCCUCGCUGGCGCCGGCUGGGCAACAUUCCGAGGGGACCGUCCCCUCGGUAAUGGCGAAUGAGACCCA [C3U G81A]: 0.17; GGUCGGCAUGGUCCCAGCCUCCUCGCUGGCGCCGGCUGGGCAACAUUCCGAGGGGACCGUCCACUCGGUAAUGGCGAAUGGGACCCA [C3U C63A]: 0.909.

For GGUCGGCAUGGUCCCAGCCUCCUCGCUGGCGCCGGCUGGGCAACAUUCCGAGGGGACCGUCCCCGCGGUAAUGGCGAAUGGGACCCA [C3U U65G], the self-cleavage worked out at 0.682. In the case of GGUCGGCAUGGUCCCAGCCUCCUCGCUGGCGCCGGCUGGGCAACAUUCCGAGGGGACCGUCCCGUCGGUAAUGGCGAAUGGGACCCA [C3U C64G], the self-cleavage amounted to 0.915. With GGUCGGCAUGGUCCCAGCCUCCUGGCUGGCGCCGGCUGGGCAACAUUCCGAGGGGACCGUCCCCUCGGUAAUGGCGAAUGGGACCCA [C3U C24G] the figure was 0.0782. For the variant GGUCGGCAUGGUCCCAGCCUCCUUGCUGGCGCCGGCUGGGCAACAUUCCGAGGGGACCGUCCCCUCGGUAAUGGCGAAUGGGACCCA [C3U C24U], the self-cleavage was found to be 0.679.

On to GGUCGGCAUGGUCCCAGCCGCCUCGCUGGCGCCGGCUGGGCAACAUUCCGAGGGGACCGUCCCCUCGGUAAUGGCGAAUGGGACCCA [C3U U20G], for which the self-cleavage was 0.125. Next, GGUCGGCAUGGUCCCAGCCUCCCCGCUGGCGCCGGCUGGGCAACAUUCCGAGGGGACCGUCCCCUCGGUAAUGGCGAAUGGGACCCA [C3U U23C]: 0.776; GGUCGGCAUGGUCCCAGCCUCCACGCUGGCGCCGGCUGGGCAACAUUCCGAGGGGACCGUCCCCUCGGUAAUGGCGAAUGGGACCCA [C3U U23A]: 0.9. As for GGUCGGCAUGGUCCCAGCCUCCGCGCUGGCGCCGGCUGGGCAACAUUCCGAGGGGACCGUCCCCUCGGUAAUGGCGAAUGGGACCCA [C3U U23G], the self-cleavage is 0.743.

For the variant GGUCGGCAUAGUCCCAGCCUCCUCGCUGGCGCCGGCUGGGCAACAUUCCGAGGGGACCGUCCCCUCGGUAAUGGCGAAUGGGACCCA [C3U G10A], the self-cleavage turned out to be 0.513. With GGUCGGCAUGGUCCCAGCCUCCUCGCUGGCGCCGGCUGGGCAACAUUCCGAGGGGACCGUCCCCUCGGUAAUGCCGAAUGGGACCCA [C3U G74C] the figure was 0.0712; with GGUCGGCAUGGUCCCAGCCUCCUCGCUGGCGCCGGCUGGGCAACAUUCCGAGGGGACCGUCCCCUCGGUAAUGUCGAAUGGGACCCA [C3U G74U], 0.241; with GGUCGGCAUGGUCCCAGCCUCCUCGCUGGCGCCAGCUGGGCAACAUUCCGAGGGGACCGUCCCCUCGGUAAUGGCGAAUGGGACCCA [C3U G34A], 0.106. For the variant GGUCGGCAUGGUCCCAGCCUCCUCGCUGGCGCCCGCUGGGCAACAUUCCGAGGGGACCGUCCCCUCGGUAAUGGCGAAUGGGACCCA [C3U G34C], the self-cleavage was determined as 0.182. Take GGUCGGCAUGGUCCCAGCCUCCUCGCUGACGCCGGCUGGGCAACAUUCCGAGGGGACCGUCCCCUCGGUAAUGGCGAAUGGGACCCA [C3U G29A]: the self-cleavage is 0.0154.

Consider GGUCGGCAUGGUCCCAGCCUCCUCGCUGGCGCCGGAUGGGCAACAUUCCGAGGGGACCGUCCCCUCGGUAAUGGCGAAUGGGACCCA [C3U C36A], for which the self-cleavage worked out at 0.132. With GGUCGGCAUGGUCCCAGCCUCCUCUCUGGCGCCGGCUGGGCAACAUUCCGAGGGGACCGUCCCCUCGGUAAUGGCGAAUGGGACCCA [C3U G25U] the figure was 0.0175; with GGUCGGCAUGGUCCCAGCCUCCUCACUGGCGCCGGCUGGGCAACAUUCCGAGGGGACCGUCCCCUCGGUAAUGGCGAAUGGGACCCA [C3U G25A], 0.138. GGUCGGCAUGGUCCCAGCCUCCUCGCUGGCGCCGGCUGGGCAAGAUUCCGAGGGGACCGUCCCCUCGGUAAUGGCGAAUGGGACCCA [C3U C44G]: the self-cleavage came out at 0.354. For GGUCGGCAUGGUCCCAGCCUCCUCGCUGGCGCCGGCUGGGCAAUAUUCCGAGGGGACCGUCCCCUCGGUAAUGGCGAAUGGGACCCA [C3U C44U], the self-cleavage turned out to be 0.378. Next, GGUCGGCAUGGUCCCAGCCUCCUCGCUGGCGCCGGCUGGGCAACAUUCCUAGGGGACCGUCCCCUCGGUAAUGGCGAAUGGGACCCA [C3U G50U]: 0.728; GGUCGGCAUGGUCCCAGCCUCCUCGCUGGCGCCGGCUGGGCAACAUUCCGAGGGGACCGUCCCCUCGGGAAUGGCGAAUGGGACCCA [C3U U69G]: 0.649.

These data come from the RNAGym collection of RNA variant scans (doi:10.7554/elife.80360).
